The results in this text go back to PMC12501005.

Series [1] concerns the target T1, AflR-DBD (15-79) (Aspergillus flavus, UniProt P41765 15-79).
T1 sequence: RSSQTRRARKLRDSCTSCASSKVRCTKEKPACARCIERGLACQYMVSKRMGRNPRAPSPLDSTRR
Put plainly: EMSA.

In a further series the target is T2, AflR 28-57 (Aspergillus flavus, UniProt P41765 28-57).
T2 chain: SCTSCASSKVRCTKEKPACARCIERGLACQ
Put plainly: EMSA. On the technique in general: Mobility shift assays separate free from complexed probe on a gel.

For a further series, the target named is T3, AflR 15-57 (Aspergillus flavus, UniProt P41765 15-57).
T3 chain: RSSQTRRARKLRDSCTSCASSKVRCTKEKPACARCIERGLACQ
Put plainly: EMSA.

Another series addresses T4, AflR 8-98 (Aspergillus flavus, UniProt P41765 8-98).
T4 sequence: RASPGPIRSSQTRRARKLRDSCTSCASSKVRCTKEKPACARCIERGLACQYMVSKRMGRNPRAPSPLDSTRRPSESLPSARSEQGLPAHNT
Put plainly: FCS.

The target in the next series is T5, AflR 15-69 (Aspergillus flavus, UniProt P41765 15-69).
T5 sequence: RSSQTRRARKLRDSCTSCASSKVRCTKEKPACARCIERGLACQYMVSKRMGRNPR
Put plainly: FCS.

For a further series, the target named is T6, AflR 26-79 (Aspergillus flavus, UniProt P41765 26-79).
T6 sequence: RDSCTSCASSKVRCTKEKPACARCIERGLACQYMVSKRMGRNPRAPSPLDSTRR
Put plainly: FCS.

In series [2] the target is T1, AflR-DBD (15-79). Put plainly: FCS.

B1: vbs inverted repeat (GCG to CCG) (dsDNA)
DNA 1: ACCGACTCTCGGACACCGAGGCAGACCG
DNA 2: CGGTCTGCCTCGGTGTCCGAGAGTCGGT
Consider B1, for which the binding result with AflR-DBD (15-79) [1] was “binds”.

B2: vbs (dsDNA)
DNA 1: ACCGACTCTCGGACAGCGAGGCAGACCG
DNA 2: CGGTCTGCCTCGCTGTCCGAGAGTCGGT
As to B2, the binding result with AflR 28-57 and with AflR 15-57 was “no binding” in each case.

B3: norA inverted repeat (GCG to CCG) (dsDNA)
DNA 1: ACCGGGCTTTCGGAAACCGATCAGCTTGT
DNA 2: ACAAGCTGATCGGTTTCCGAAAGCCCGGT
Take B3: in the series with AflR-DBD (15-79) [1], the binding result is recorded as “binds”.

B4: norA (dsDNA)
DNA 1: ACCGGGCTTTCGGAAAGCGATCAGCTTGT
DNA 2: ACAAGCTGATCGCTTTCCGAAAGCCCGGT
As to B4, the binding result with AflR 28-57 and in the series with AflR 15-57 was “no binding” throughout.

B5: ver1 (dsDNA)
DNA 1: TCAGATATTTCGGTCTCCGAGGAAAGAT
DNA 2: ATCTTTCCTCGGAGACCGAAATATCTGA
As for B5, the binding result with AflR 28-57 and with AflR 15-57 was “no binding” in each case. Besides, the Kd (usually the equilibrium constant for the complex coming apart) with AflR 8-98 worked out at 409 ± 137 nM; in the series with AflR 15-69, 1510 ± 250 nM; in the series with AflR 26-79, 4020 ± 594 nM; in the series with AflR-DBD (15-79) [2] it was 401 ± 54.5 nM.
